Source: US20120270914A1 (Stanford University, published 2012)
Blank lines part the entries; values can stand above or below the binder they belong to.

Target: NFL-c-Myc (firefly, UniProt P08659 1-398 = luciferase, phosphorylated in the cells at S62 and T58 (c-Myc numbering))
Assay: cell-based or functional assay

Chain of NFL-c-Myc (P08659 other isoform, or with tags, fused parts or gaps limits assumed): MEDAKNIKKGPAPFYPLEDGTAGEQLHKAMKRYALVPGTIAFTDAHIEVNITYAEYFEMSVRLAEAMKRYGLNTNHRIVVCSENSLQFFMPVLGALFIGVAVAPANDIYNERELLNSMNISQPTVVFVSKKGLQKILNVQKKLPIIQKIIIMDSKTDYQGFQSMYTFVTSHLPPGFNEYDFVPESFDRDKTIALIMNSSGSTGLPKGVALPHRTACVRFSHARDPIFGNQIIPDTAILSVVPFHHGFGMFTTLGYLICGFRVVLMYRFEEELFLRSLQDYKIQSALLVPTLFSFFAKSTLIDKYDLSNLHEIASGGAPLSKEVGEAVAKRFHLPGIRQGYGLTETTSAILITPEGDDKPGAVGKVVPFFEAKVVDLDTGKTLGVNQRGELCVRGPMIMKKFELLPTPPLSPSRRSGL

complemented FL activity (BLI, SKBR3 cells), compared with the pairing of GSK Full-CFL and NFL-SH2-SH2: > 10 fold
B1: GSK Full-CFL (other, not shown: large carriers)
chain: MSGRPRTTSFAESCKPVQQPSAFGSMKVSRDKDGSKVTTVVATPGQGPDRPQEVSYTDTKVIGNGSFGVVYQAKLCDSGELVAIKKVLQDKRFKNRELQIMRKLDHCNIVRLRYFFYSSGEKKDEVYLNLVLDYVPETVYRVARHYSRAKQTLPVIYVKLYMYQLFRSLAYIHSFGICHRDIKPQNLLLDPDTAVLKLCDFGSAKQLVRGEPNVSYICSRYYRAPELIFGATDYTSSIDVWSAGCVLAELLLGQPIFPGDSGVDQLVEIIKVLGTPTREQIREMNPNYTEFKFPQIKAHPWTKDSSGTGHFTSGVRVFRPRTPPEAIALCSRLLEYTPTARLTPLEACAHSFFDELRDPNVKLPNGRDTPALFNFTTQELSSNPPLATILIPPHARIQAAASTPTNATAASDANTGDRGQTNNAASASASNST

complemented FL activity of SKBR3 xenografts in nude mice, normalized to hRL activity, compared with pcDNA3.1(+) vector: 10.6 fold
B2: GSK 35-433-CFL (other, not shown: large carriers)
chain: SKVTTVVATPGQGPDRPQEVSYTDTKVIGNGSFGVVYQAKLCDSGELVAIKKVLQDKRFKNRELQIMRKLDHCNIVRLRYFFYSSGEKKDEVYLNLVLDYVPETVYRVARHYSRAKQTLPVIYVKLYMYQLFRSLAYIHSFGICHRDIKPQNLLLDPDTAVLKLCDFGSAKQLVRGEPNVSYICSRYYRAPELIFGATDYTSSIDVWSAGCVLAELLLGQPIFPGDSGVDQLVEIIKVLGTPTREQIREMNPNYTEFKFPQIKAHPWTKDSSGTGHFTSGVRVFRPRTPPEAIALCSRLLEYTPTARLTPLEACAHSFFDELRDPNVKLPNGRDTPALFNFTTQELSSNPPLATILIPPHARIQAAASTPTNATAASDANTGDRGQTNNAASASASNST
